± gives the standard error. Variants at the floor of the assay were thinned out.
B1: glmS ribozyme (parent)
chain: AUAAAAGCGCCAGAACUACAGAAAUGUAGUUGACGAGGAGGAGGUUUAUCGAAUUUUCGGCGGAUGCCUCCAAA

How the values were obtained:
Conditions in all cases: with glucosamine-6-phosphate
glucosamine-6-phosphate [1] = variants of: B1; assay: self-cleavage kobs at 40 uM GlcN6P; higher = faster cleavage; RNA array
In short: (§1)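 Sequenced MiSeq chips were the platform: E. coli RNA polymerase transcribed barcoded ribozyme variants on them in situ, and a hybridised Cy3 probe tracked these at 37 °C. After glucosamine-6-phosphate (40 μM to 10 mM) in HEPES/KCl/Mg(OAc)2 buffer was flowed in, tiles were imaged over ~14 h. Signals normalised to baseline and to non-cleaving reference variants were reduced to per-tile medians and fit to one- or two-exponential decays to obtain kobs. kcat and KM were derived through weighted Michaelis–Menten fits across concentrations.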

glucosamine-6-phosphate [2] = variants of: B1; assay: self-cleavage kobs at 160 uM GlcN6P; higher = faster cleavage; RNA array
In short: as §1

glucosamine-6-phosphate [3] = variants of: B1; assay: self-cleavage kobs at 640 uM GlcN6P; higher = faster cleavage; RNA array
In short: as §1

glucosamine-6-phosphate [4] = variants of: B1; assay: self-cleavage kobs at 2500 uM GlcN6P; higher = faster cleavage; RNA array
In short: as §1

glucosamine-6-phosphate [5] = variants of: B1; assay: self-cleavage kobs at 10000 uM GlcN6P; higher = faster cleavage; RNA array
In short: as §1

Variant: AUAAAAGCGCCACAAUUACAGAAAUGUAGUUGACGAGGAGGAGGUUUAUCGAAUUUUCGGCGAAUGCCUCCAAA
- self-cleavage kobs at 40 uM GlcN6P (glucosamine-6-phosphate [1]): < 1e-05 s⁻¹

Variant: AUAAAAACGCCAGAACUACAGAAAUGUAGUUGACGAGGAGGAGGUUUAUCGACUUUUCGGCGGAUGCCUCCAAA
- self-cleavage kobs at 40 uM GlcN6P (glucosamine-6-phosphate [1]): < 1e-05 s⁻¹
- self-cleavage kobs at 160 uM GlcN6P (glucosamine-6-phosphate [2]): < 1e-05 s⁻¹
- self-cleavage kobs at 640 uM GlcN6P (glucosamine-6-phosphate [3]): < 1e-05 s⁻¹
- self-cleavage kobs at 2500 uM GlcN6P (glucosamine-6-phosphate [4]): < 1e-05 s⁻¹

Variant: AUAAAAGCGCCAGAACUACAGAAAUGUAGUUGAAGAGGAGGAGGUUUAUCGAAUUUUCGGCAGAUGCCUCCAAA
- self-cleavage kobs at 40 uM GlcN6P (glucosamine-6-phosphate [1]): < 1e-05 s⁻¹
- self-cleavage kobs at 160 uM GlcN6P (glucosamine-6-phosphate [2]): < 1e-05 s⁻¹
- self-cleavage kobs at 640 uM GlcN6P (glucosamine-6-phosphate [3]): < 1e-05 s⁻¹
- self-cleavage kobs at 2500 uM GlcN6P (glucosamine-6-phosphate [4]): < 1e-05 s⁻¹
- self-cleavage kobs at 10000 uM GlcN6P (glucosamine-6-phosphate [5]): < 1e-05 s⁻¹

Variant: AUAAAAGCGCCAGAACUACAGAAAUGUAGUUGACGCGGAGGUGGUUUAUCGAAUUUUCGGCGGAUGCCUCCAAA
- self-cleavage kobs at 40 uM GlcN6P (glucosamine-6-phosphate [1]): < 1e-05 s⁻¹

Variant: AUAAAAGAGCCAGAACUACAGAAAUGUAGUUGAUGAGGAGGAGGUUCAUCGAAUUUUCGGCGGAUGUCUCCAAA
- self-cleavage kobs at 40 uM GlcN6P (glucosamine-6-phosphate [1]): < 1e-05 s⁻¹
- self-cleavage kobs at 10000 uM GlcN6P (glucosamine-6-phosphate [5]): < 1e-05 s⁻¹

Variant: AUAAAAGCGCCAGAACUACAGAAAUGUAGUUGACGAGGCGGAGGUUUAUAGAAUUUUCGGCGGAUGCCUCCAAA
- self-cleavage kobs at 40 uM GlcN6P (glucosamine-6-phosphate [1]): < 1e-05 s⁻¹
- self-cleavage kobs at 160 uM GlcN6P (glucosamine-6-phosphate [2]): < 1e-05 s⁻¹
- self-cleavage kobs at 640 uM GlcN6P (glucosamine-6-phosphate [3]): < 1e-05 s⁻¹
- self-cleavage kobs at 10000 uM GlcN6P (glucosamine-6-phosphate [5]): < 1e-05 s⁻¹

Variant: AUAAAAGCGCCAGAACUACAGAAAUGUAGUCGACGAGGAGGAGGUUUAUCUAAUUUUCGGCGGAUGCCUCCAAA
- self-cleavage kobs at 40 uM GlcN6P (glucosamine-6-phosphate [1]): < 1e-05 s⁻¹
- self-cleavage kobs at 10000 uM GlcN6P (glucosamine-6-phosphate [5]): < 1e-05 s⁻¹

Variant: AUAAAAGCGCCAGAAUUACAGAAAUGUAGUUGAUGAGGAGGAGGUUUAUCGAAUUUUCGGCGGAUGCCUCCAAA
- self-cleavage kobs at 40 uM GlcN6P (glucosamine-6-phosphate [1]): < 1e-05 s⁻¹
- self-cleavage kobs at 160 uM GlcN6P (glucosamine-6-phosphate [2]): < 1e-05 s⁻¹
- self-cleavage kobs at 10000 uM GlcN6P (glucosamine-6-phosphate [5]): < 1e-05 s⁻¹

Variant: AUAAAAGCGCCAUAACUACAGAAAUGUAGUCGACGAGGAGGAGGUUUAUGGAAUUUUCGGCGUAUGCCUCCAAA
- self-cleavage kobs at 40 uM GlcN6P (glucosamine-6-phosphate [1]): < 1e-05 s⁻¹

Variant: AUAAAAGCGCCAGAAUUACAGAAAUGUAGUUGAGGAGGAGGAGGUUUAUCGAAUUUACGGCUGAUGCCUCCAAA
- self-cleavage kobs at 40 uM GlcN6P (glucosamine-6-phosphate [1]): < 1e-05 s⁻¹
- self-cleavage kobs at 10000 uM GlcN6P (glucosamine-6-phosphate [5]): < 1e-05 s⁻¹

Variant: AUAAAAGCGCCAGAACUACAGAAAUGUAGUUGACCAGGAGGAGGUUUGUCGCAUUUUCGGCGGAUGCCUGCAAA
- self-cleavage kobs at 40 uM GlcN6P (glucosamine-6-phosphate [1]): < 1e-05 s⁻¹

Variant: AUAAAAGCGCCAGAACUACAGAAAUGUAGUUUAGGAGGAGGAGGUUUAUCGAAUUUUCGGCGGAUGCCUCCAAA
- self-cleavage kobs at 40 uM GlcN6P (glucosamine-6-phosphate [1]): < 1e-05 s⁻¹
- self-cleavage kobs at 160 uM GlcN6P (glucosamine-6-phosphate [2]): < 1e-05 s⁻¹
- self-cleavage kobs at 640 uM GlcN6P (glucosamine-6-phosphate [3]): < 1e-05 s⁻¹
- self-cleavage kobs at 10000 uM GlcN6P (glucosamine-6-phosphate [5]): < 1e-05 s⁻¹

Variant: AUAAAAGCGCCAGAACUACAGAAAUGUAGUUGACGACGAGUAGGUCUAUCGAAUUUUCGGCGGAUGCCUCCAAA
- self-cleavage kobs at 40 uM GlcN6P (glucosamine-6-phosphate [1]): < 1e-05 s⁻¹
- self-cleavage kobs at 10000 uM GlcN6P (glucosamine-6-phosphate [5]): < 1e-05 s⁻¹

Variant: AUAAAAGCGCCAAAACUACAGAAAUGUAGUUGACGAGGAGGAGGUUCAUCGAAUUUUUGGCGGAUGCCUCUAAA
- self-cleavage kobs at 40 uM GlcN6P (glucosamine-6-phosphate [1]): < 1e-05 s⁻¹
- self-cleavage kobs at 10000 uM GlcN6P (glucosamine-6-phosphate [5]): 6.08e-05 ± 1.3e-05 s⁻¹

Variant: AUAAAAGCGCCAGAACUACAGAAAUGUAGUUGACAAGGAGGAGGUUUAUCGAAUUUGCGGCGGAUGCCUCCAAA
- self-cleavage kobs at 40 uM GlcN6P (glucosamine-6-phosphate [1]): < 1e-05 s⁻¹

Variant: AUAAAAGCGCCAGAACUACAGAAAUGUAGAUGACGAGGAGGAGGUUUAUGGAAAUUUCGGCGGAUGCCGCCAAA
- self-cleavage kobs at 40 uM GlcN6P (glucosamine-6-phosphate [1]): 5.79e-05 ± 1.6e-05 s⁻¹

Variant: AUAAAAGCGUCAGAUCUACAGAAAUGUAGUUGACGAGGAGGAAGUUUAUCGGAUUUUCGGCGGAUGCCUCCAAA
- self-cleavage kobs at 40 uM GlcN6P (glucosamine-6-phosphate [1]): < 1e-05 s⁻¹
- self-cleavage kobs at 10000 uM GlcN6P (glucosamine-6-phosphate [5]): < 1e-05 s⁻¹

Variant: AUAAAAGCGCCAGAACUACAGAAAUGUAGUUGACGAGGAGGAGGUUUAUGGAAUUUUCGGCGCAUGCCUCUAAA
- self-cleavage kobs at 40 uM GlcN6P (glucosamine-6-phosphate [1]): 7.02e-05 ± 2.9e-05 s⁻¹

Variant: AUAAAGGCGGCAUAAGUACAGAAAUGUAGUUGACGAGGAGGAGGUUUAUCGAAGUUGCGGCGGAUGCCUCCAAA
- self-cleavage kobs at 40 uM GlcN6P (glucosamine-6-phosphate [1]): < 1e-05 s⁻¹
- self-cleavage kobs at 10000 uM GlcN6P (glucosamine-6-phosphate [5]): < 1e-05 s⁻¹

Variant: AUAAAGGCGCCAGAACUACAGAAAUGUAGUUGACAAGGAGGAGGUUUAUCGAAUUUUCGGCGGAUGUCACCAAA
- self-cleavage kobs at 40 uM GlcN6P (glucosamine-6-phosphate [1]): < 1e-05 s⁻¹
- self-cleavage kobs at 160 uM GlcN6P (glucosamine-6-phosphate [2]): < 1e-05 s⁻¹
- self-cleavage kobs at 640 uM GlcN6P (glucosamine-6-phosphate [3]): < 1e-05 s⁻¹
- self-cleavage kobs at 2500 uM GlcN6P (glucosamine-6-phosphate [4]): < 1e-05 s⁻¹
- self-cleavage kobs at 10000 uM GlcN6P (glucosamine-6-phosphate [5]): < 1e-05 s⁻¹

Variant: AUAAAAGCGCCAGAACUACAGAAAUGUAGUUGACCAGGAGGAGGUUUGUAGAAUUUUCGGCGGAUGCCUCCAAA
- self-cleavage kobs at 40 uM GlcN6P (glucosamine-6-phosphate [1]): < 1e-05 s⁻¹

Variant: AUAAAAUCGCCAGAAUUACAGAAAUGUACUUGACGAGGAGGAGGUUUAUCGAAAUUUCGGCGGAUGCCUCCAAA
- self-cleavage kobs at 40 uM GlcN6P (glucosamine-6-phosphate [1]): < 1e-05 s⁻¹
- self-cleavage kobs at 2500 uM GlcN6P (glucosamine-6-phosphate [4]): < 1e-05 s⁻¹

Variant: AUAAAAGCGCCAGAACUACAGAAAUGUAGUUGACGACGAGGUGGUUUAUCGAAUUUUCGGCGGAUGCCUACAAA
- self-cleavage kobs at 40 uM GlcN6P (glucosamine-6-phosphate [1]): < 1e-05 s⁻¹

Variant: AUAAAAGCGCCAGAACUACAGAAAUGUAGUUGAUGAGGAUGAGGUUUAUUGAAUUUUCGGCGGAUGCCUCCAAA
- self-cleavage kobs at 40 uM GlcN6P (glucosamine-6-phosphate [1]): < 1e-05 s⁻¹
- self-cleavage kobs at 640 uM GlcN6P (glucosamine-6-phosphate [3]): < 1e-05 s⁻¹
- self-cleavage kobs at 10000 uM GlcN6P (glucosamine-6-phosphate [5]): < 1e-05 s⁻¹

Variant: AUAAAAGCGCCAGAACUACAGAAAUGUAGUGGACGAGGAGGAUGUUUAUCGAAAUUUCGGCGGAUGCCUCCAAA
- self-cleavage kobs at 40 uM GlcN6P (glucosamine-6-phosphate [1]): < 1e-05 s⁻¹

Variant: AUAAAAGCGCCAGAACUACAGAAAUGUAGUUGACGAGGACGAGGUUUAUCGAAUUUUGGGCGGAUGUCUCCAAA
- self-cleavage kobs at 40 uM GlcN6P (glucosamine-6-phosphate [1]): < 1e-05 s⁻¹

Variant: AUAAAAGCGCCAGAACUACAGAAAUGUAGUUGACGAGGAGGAGGUUUAUCGAAUUAUCGGCGGAUGCCUUCAAA
- self-cleavage kobs at 40 uM GlcN6P (glucosamine-6-phosphate [1]): 0.000377 ± 3.2e-05 s⁻¹
- self-cleavage kobs at 160 uM GlcN6P (glucosamine-6-phosphate [2]): 0.000852 ± 0.00013 s⁻¹
- self-cleavage kobs at 640 uM GlcN6P (glucosamine-6-phosphate [3]): 0.002 ± 0.00026 s⁻¹
- self-cleavage kobs at 2500 uM GlcN6P (glucosamine-6-phosphate [4]): 0.0104 ± 0.0022 s⁻¹
- self-cleavage kobs at 10000 uM GlcN6P (glucosamine-6-phosphate [5]): 0.0156 ± 0.0024 s⁻¹

Variant: AUAAAAGCGCCAGAACUACAGAAAUGUAGUUGACGAGGAGGAGGUUUCUCUAAUUUUGGGCGGAUGCCUCCAAA
- self-cleavage kobs at 40 uM GlcN6P (glucosamine-6-phosphate [1]): < 1e-05 s⁻¹

Variant: AUAAAAGCGACAAAACUACAGAAAUGUAGUUGACGAGGAGGAGGUUUAUCGAAUUCUCGGCGGAUGCCUCCAAA
- self-cleavage kobs at 40 uM GlcN6P (glucosamine-6-phosphate [1]): < 1e-05 s⁻¹

Variant: AUAAAAGCGCCAGAACUACAGAAAUGUAGUUGACGAGGAGGAGGUUUAUCGAAUUUUCCGCGGAAGCCUCCAAA
- self-cleavage kobs at 40 uM GlcN6P (glucosamine-6-phosphate [1]): < 1e-05 s⁻¹
- self-cleavage kobs at 160 uM GlcN6P (glucosamine-6-phosphate [2]): < 1e-05 s⁻¹
- self-cleavage kobs at 640 uM GlcN6P (glucosamine-6-phosphate [3]): < 1e-05 s⁻¹
- self-cleavage kobs at 10000 uM GlcN6P (glucosamine-6-phosphate [5]): < 1e-05 s⁻¹

Variant: AUAAAAGCGCCAGAACUACAGAAAUGUAGUUGACGAGGAGGAGGUUUAUCGAAUUGUCGGCGCAUGCCUCCAAA
- self-cleavage kobs at 40 uM GlcN6P (glucosamine-6-phosphate [1]): < 1e-05 s⁻¹
- self-cleavage kobs at 160 uM GlcN6P (glucosamine-6-phosphate [2]): < 1e-05 s⁻¹
- self-cleavage kobs at 640 uM GlcN6P (glucosamine-6-phosphate [3]): < 1e-05 s⁻¹
- self-cleavage kobs at 10000 uM GlcN6P (glucosamine-6-phosphate [5]): < 1e-05 s⁻¹

Variant: AUAAAAGCGCCAGAACUACAGAAAUGUAGUUGACGACGAGGAGUUUUAUCGAAUUUUCGGCGGAUGCCUCCAAA
- self-cleavage kobs at 40 uM GlcN6P (glucosamine-6-phosphate [1]): < 1e-05 s⁻¹
- self-cleavage kobs at 640 uM GlcN6P (glucosamine-6-phosphate [3]): < 1e-05 s⁻¹

Variant: AUAAAAGCGCCAGAACUACAGAAAUGUAGUUGACGAGGAGGAGGUUUAUCGAAUUUUCGGCAGAUGCCUCAAAA
- self-cleavage kobs at 40 uM GlcN6P (glucosamine-6-phosphate [1]): < 1e-05 s⁻¹
- self-cleavage kobs at 10000 uM GlcN6P (glucosamine-6-phosphate [5]): < 1e-05 s⁻¹

From the supplement of paper PMC7125110
